PMC10309634, “Computer simulation approach to the identification of visfatin-derived angiogenic peptides” (PLOS ONE, 2023)

System: HUVECs
Assay: In vitro tube formation assay on Matrigel
Type: cell-based, human
Settings: positive controls, 4 hours on Matrigel, compared to the control group
Experimental: HUVECs (2×10^4 cells/well) were seeded on a layer of polymerized Matrigel and treated with or without visfatin-derived peptides. The Matrigel culture was incubated at 37°C in the EGM supplemented with EGM-Supplement Mix® containing 1% FBS. After 4 hours, changes in the cell morphology were observed using a phase-contrast microscope and photographed at 40× magnification. Each sample was assayed in duplicate, and independent experiments were repeated three times. Angiogenesis was analyzed with ImageJ software using an angiogenesis analyzer (Bethesda, MD, USA).

B1: visfatin: Commercial recombinant mouse visfatin (Adipogen Life Science), positive control (protein, UniProt Q99KQ4 1-491, looked up)
Nicotinamide …: MNAAAEAEFNILLATDSYKVTHYKQYPPNTSKVYSYFECREKKTENSKVRKVKYEETVFYGLQYILNKYLKGKVVTKEKIQEAKEVYREHFQDDVFNERGWNYILEKYDGHLPIEVKAVPEGSVIPRGNVLFTVENTDPECYWLTNWIETILVQSWYPITVATNSREQKKILAKYLLETSGNLDGLEYKLHDFGYRGVSSQETAGIGASAHLVNFKGTDTVAGIALIKKYYGTKDPVPGYSVPAAEHSTITAWGKDHEKDAFEHIVTQFSSVPVSVVSDSYDIYNACEKIWGEDLRHLIVSRSTEAPLIIRPDSGNPLDTVLKVLDILGKKFPVTENSKGYKLLPPYLRVIQGDGVDINTLQEIVEGMKQKKWSIENVSFGSGGALLQKLTRDLLNCSFKCSYVVTNGLGVNVFKDPVADPNKRSKKGRLSLHRTPAGNFVTLEEGKGDLEEYGHDLLHTVFKNGKVTKSYSFDEVRKNAQLNIEQDVAPH
- number of meshes: not significantly different
